From article PMC7793685 come the findings set out here.

Where a chain is given by its changes, count along the chain named.

Series [1] deals with T1, MBP-MogRQN→AA Q119A;N120A (Bacillus thuringiensis 407), ORF:ee0ae10c.
T1 sequence: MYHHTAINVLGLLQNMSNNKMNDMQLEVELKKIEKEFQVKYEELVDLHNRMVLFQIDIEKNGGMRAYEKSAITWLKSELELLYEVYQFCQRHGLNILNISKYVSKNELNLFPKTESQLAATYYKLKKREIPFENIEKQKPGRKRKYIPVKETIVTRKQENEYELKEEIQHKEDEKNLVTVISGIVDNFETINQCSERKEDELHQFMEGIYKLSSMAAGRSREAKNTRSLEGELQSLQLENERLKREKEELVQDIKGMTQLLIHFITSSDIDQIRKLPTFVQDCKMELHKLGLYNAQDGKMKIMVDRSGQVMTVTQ
Nature of the series: EMSA. (In general: A gel shift assay detects complexes by their altered migration in electrophoresis.)

The subject of series [2] is T2, MBP-MogR (Bacillus thuringiensis 407), ORF:ee0ae10c.
T2 sequence: T1 sequence with A119Q, A120N
Briefly: EMSA.

Turning to “CAACTATCATAATATCACCTTTTCGGTAAACAAAGATAATCTAATATTAGAGTTTTTTTTTAAAGTTTGCAATAATCCTTTTAATAATTATGTAATAAAAAATGAATATATTGTTAAACTGTTATTTTTTTATATTTATTAATTCGAATTTTTAGTTGACACCCG (double strand) [fla promoter fragment]”, the binding result is on record as “no binding” in series [1] and “binds” in series [2].
Consider “TTACAGAAATGAAATTTACGGATAACTATATTTATATAATTTTTTCGGTTCATATTTTTATTTAACAGTAAATTATCGATCGTAATCGACAAAATTTTTCTATTTACGCATTAAAAATTTAATGTTTTAATGAACAACATAACTGGTATGACCAGACAGAAAGGATAAGG (double strand) [hbl promoter fragment]”, for which, in series [2], the binding entry is reported as “binds”.
